The target of experiment [1] is T1, YKL-40-6his expressed from pcDNA3.1 in transfected 293T cells (human, UniProt P36222 22-383).
T1 construct: whole, on cells; also called YKL-40(YKL-40-6his); not shown: 6his tag
Kind of experiment: CBA, immunofluorescence of hybridoma supernatant on transfected fixed 293T cells.

In experiment [2] the target is YKL-40-strep (YKL-40 protein expressed from pGEX 4t-1 in E. coli BL21(DE3)) (human) (UniProt P36222). Put plainly: ELISA, supernatant of subclone 10F1-G8-D9 on coated YKL-40, 3rd screen. (ELISA stands for enzyme-linked immunosorbent assay.)
The target is the same in experiment [3]. Kind of experiment: ELISA, uncloned hybridoma supernatant (plate 10, well F1) on coated YKL-40, 1st screen.
In experiment [4] the target is T2, Q YKL-40-293-310-6his (YKL-40 construct lacking residues 293-310) (human, UniProt P36222 22-383).
T2 construct: also called 缺失氨基酸区间293-310组; not shown: 6his tag
T2 sequence (P36222 other isoform, or with tags, fused parts or gaps limits assumed): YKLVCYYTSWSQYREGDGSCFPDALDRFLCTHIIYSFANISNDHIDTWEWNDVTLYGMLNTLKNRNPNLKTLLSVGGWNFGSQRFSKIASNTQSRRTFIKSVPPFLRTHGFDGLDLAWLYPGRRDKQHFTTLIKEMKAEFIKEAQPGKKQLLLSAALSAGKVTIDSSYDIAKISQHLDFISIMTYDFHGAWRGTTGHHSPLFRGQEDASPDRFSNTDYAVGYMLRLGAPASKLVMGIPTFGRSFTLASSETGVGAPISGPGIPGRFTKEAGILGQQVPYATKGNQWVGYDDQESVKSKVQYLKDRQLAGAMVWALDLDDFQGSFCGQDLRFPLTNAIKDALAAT
Kind of experiment: immunofluorescence on transfected, acetone-fixed 293T cells.

The target in experiment [5] is T1, YKL-40-6his expressed from pcDNA3.1 in …. Put plainly: immunofluorescence of 293T supernatant on transfected fixed 293T cells.

T1 sequence (P36222 22-383): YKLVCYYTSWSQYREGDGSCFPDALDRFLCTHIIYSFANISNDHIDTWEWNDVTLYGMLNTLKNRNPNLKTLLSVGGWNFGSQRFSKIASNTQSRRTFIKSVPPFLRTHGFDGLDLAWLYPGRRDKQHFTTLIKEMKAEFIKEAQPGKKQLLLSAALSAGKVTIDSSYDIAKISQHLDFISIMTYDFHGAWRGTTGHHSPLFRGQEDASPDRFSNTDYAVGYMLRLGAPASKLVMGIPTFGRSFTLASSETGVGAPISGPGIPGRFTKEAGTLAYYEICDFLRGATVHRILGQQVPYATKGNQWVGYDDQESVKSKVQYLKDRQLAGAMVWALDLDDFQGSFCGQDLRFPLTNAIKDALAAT

B1: 单克隆抗体10F1 (hybridoma-derived, clone 10F1-G8-D9) (antibody, V domains shown)
VH: EVQLQESGPSLVKPSQTLSLSCSVTGDSITSGYWNWIRKFPGNKLEYMGFISYSGNTYYNPSLKSRISITRDTSKNQYFLQLNSVTTEDTATYYCVRKGDYDGAWFAYWGQGTLVTVSA
VL: DIQMTQSPASLSASVGETVTITCRASGNIHNYLAWYQQKQGKSPQLLVYNAKTLADGVPSRFSGSGSGTQYSLKINSLQPEDFGSYYCQHFWSTPLTFGAGTKLELK
notes: Mouse hybridoma antibody; Tested as hybridoma culture supernatant; also called YKL-40单克隆抗体
As to B1, in experiment [1], the binding result is given as “binds”. In addition, the OD450 in experiment [2] stood at 1.14; in experiment [3], 0.905.

B2: 重组单克隆抗体10F1 (expressed from 10F1m2a + 10F1mk in 293T cells) (antibody, V domains shown)
VH: B1 VH
VL: B1 VL
notes: also called 重组10F1单克隆抗体
Turning to B2, the figures for the binding result in experiment [4] and in experiment [5] were “no binding” and “binds”, respectively.

(Values after patent CN115850497A (SHAANXI MAI YUAN BIOTECHNOLOGY CO LTD, dated 2023).)
